The values that follow come from patent US20230250154A1.

The assay deals with Protease Mixtures. Nature of the assay: cell-based or functional assay.

B1: Variant A2M, bait region SEQ ID NO 143, P01023 24-1474 (protein)
chain: SVSGKPQYMVLVPSLLHTETTEKGCVLLSYLNETVTVSASLESVRGNRSLFTDLEAENDVLHCVAFAVPKSSSNEEVMFLTVQVKGPTQEFKKRTTVMVKNEDSLVFVQTDKSIYKPGQTVKFRVVSMDENFHPLNELIPLVYIQDPKGNRIAQWQSFQLEGGLKQFSFPLSSEPFQGSYKVVVQKKSGGRTEHPFTVEEFVLPKFEVQVTVPKIITILEEEMNVSVCGLYTYGKPVPGHVTVSICRKYSDASDCHGEDSQAFCEKFSGQLNSHGCFYQQVKTKVFQLKRKEYEMKLHTEAQIQEEGTVVELTGRQSSEITRTITKLSFVKVDSHFRQGIPFFGQVRLVDGKGVPIPNKVIFIRGNEANYYSNATTDEHGLVQFSINTTNVMGTSLTVRVNYKDRSPCYGYQWVSEEHEEAHHTAYLVFSPSKSFVHLEPMSHELPCGHTQTVQAHYILNGGTLLGLKKLSFYYLIMAKGGIVRTGTHGLLVKQEDMKGHFSISIPVKSDIAPVARLLIYAVLPTGDVIGDSAKYDVENCLANKVDLSFSPSQSLPASHAHLRVTAAPQSVCALRAVDQSVLLMKPDAELSASSVYNLLPEKDLTGFPGPLNDQDDEDCINRHNVYINGITYTPVSSTNEKDMYSFLEDMGLKAFTNSKIRKPKMCPQLEQYEMHGPIPENFFGVSEDLVVQIEGEGEGEGEAIPMSIPTEPHTKLRKYFPETWIWDLVVVNSAGVAEVGVTVPDTITEWKAGAFCLSEDAGLGISSTASLRAFQPFFVELTMPYSVIRGEAFTLKATVLNYLPKCIRVSVQLEASPAFLAVPVEKEQAPHCICANGRQTVSWAVTPKSLGNVNFTVSAEALESQELCGTEVPSVPEHGRKDTVIKPLLVEPEGLEKETTFNSLLCPSGGEVSEELSLKLPPNVVEESARASVSVLGDILGSAMQNTQNLLQMPYGCGEQNMVLFAPNIYVLDYLNETQQLTPEIKSKAIGYLNTGYQRQLNYKHYDGSYSTFGERYGRNQGNTWLTAFVLKTFAQARAYIFIDEAHITQALIWLSQRQKDNGCFRSSGSLLNNAIKGGVEDEVTLSAYITIALLEIPLTVTHPVVRNALFCLESAWKTAQEGDHGSHVYTKALLAYAFALAGNQDKRKEVLKSLNEEAVKKDNSVHWERPQKPKAPVGHFYEPQAPSAEVEMTSYVLLAYLTAQPAPTSEDLTSATNIVKWITKQQNAQGGFSSTQDTVVALHALSKYGAATFTRTGKAAQVTIQSSGTFSSKFQVDNNNRLLLQQVSLPELPGEYSMKVTGEGCVYLQTSLKYNILPEKEEFPFALGVQTLPQTCDEPKAHTSFQISLSVSYTGSRSASNMAIVDVKMVSGFIPLKPTVKMLERSNHVSRTEVSSNHVLIYLDKVSNQTLSLFFTVLQDVPVRDLKPAIVKVYDYYETDEFAIAEYNAPCSKDLGNADYKDDDDKGASHHHHHH
Consider B1, for which the Protease Inhibition (% of WT); Protease Mixtures, IGD Substrate was 110 % of WT.
